Paper PMC10748421

Target: full-length recombinant human BAX (human) (UniProt Q07812)
Assay: not stated; data not shown; BAX stocks at high concentrations

stoichiometry N: 2
Substance: full-length recombinant human BAX (from UniProt Q07812 1-192) (natural protein)
